Laboratory results: the RNAGym collection of RNA variant scans (doi:10.1073/pnas.2313332121)

B1: TPR t1 (parent)
chain: GACCAAUCUGCCCUCAGAGCUCGAGAACAUCUUCGGAUGCAGAGGAGGCAGGCUUCGGUGGCGCGAUAGCGCCAACGUCCUCAACCUCCAAUGCAUCCCACCACAUGAUGAUGCCUGAAGAGCCUUGGUUUUUUG

Variants of: B1
Assay: polymerase ribozyme fitness, log enrichment relative to wild type (log ratio); higher = more active; in vitro selection for triplet polymerase activity
Procedure, shortened: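 Genotype fitness is the logarithm of its enrichment divided by wild-type enrichment, using inverse-variance-weighted averages of replicates. That logarithm is base 2. Enrichment was measured by Illumina sequencing of input and output libraries from one triplicate in vitro selection round, with frozen incubation at −7 °C, on PCR-built, transcribed mutant libraries of each subunit of a heterodimeric triplet polymerase ribozyme, retaining genotypes with ≥10 input reads and ≥1 read per output.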

**Q.** Which “polymerase ribozyme fitness (log ratio)” value does the source give for C12A U78C here?
**A.** -0.581

**Q.** For C12A C64U U81A, which “polymerase ribozyme fitness (log ratio)” value is on record?
**A.** -1.67

**Q.** Which “polymerase ribozyme fitness (log ratio)” value does the source give for C12U G35A C62U G117A here?
**A.** -6.59

**Q.** Which “polymerase ribozyme fitness (log ratio)” value does the source give for C12G C73A A74G C89A A111G G127U here?
**A.** -5.44

**Q.** For C11U U21C G63A C82U, which “polymerase ribozyme fitness (log ratio)” value is on record?
**A.** -1.23

**Q.** Which “polymerase ribozyme fitness (log ratio)” value does the source give for C12G C70A C82U A105U U106A U109G here?
**A.** -4.43

**Q.** With C12G G52A C88U G120U as the variant, how does the “polymerase ribozyme fitness (log ratio)” value read?
**A.** 1.84

**Q.** For C12U A37U G63A C85U G93C G120A, which “polymerase ribozyme fitness (log ratio)” value is on record?
**A.** -0.961

**Q.** With C12U C13U C89U U133G as the variant, how does the “polymerase ribozyme fitness (log ratio)” value read?
**A.** -0.318

**Q.** For C12U G35A G57C C88U, which “polymerase ribozyme fitness (log ratio)” value is on record?
**A.** -4.97

**Q.** With C12G G61U G107U as the variant, how does the “polymerase ribozyme fitness (log ratio)” value read?
**A.** -4.66

**Q.** With C11U U32A C34U G69U C88A as the variant, how does the “polymerase ribozyme fitness (log ratio)” value read?
**A.** -4.62

**Q.** For C11U U21G G42A U96G, which “polymerase ribozyme fitness (log ratio)” value is on record?
**A.** -4.94

**Q.** With C12A C88G as the variant, how does the “polymerase ribozyme fitness (log ratio)” value read?
**A.** -1.56

**Q.** With C12A C88G C89A U116C C124A G127A as the variant, how does the “polymerase ribozyme fitness (log ratio)” value read?
**A.** -3.44

**Q.** Which “polymerase ribozyme fitness (log ratio)” value does the source give for C12A G61A C64U here?
**A.** -4

**Q.** With C12G G120C as the variant, how does the “polymerase ribozyme fitness (log ratio)” value read?
**A.** 1.23

**Q.** With C12G G69U G93U C94G U96A C97U U109A as the variant, how does the “polymerase ribozyme fitness (log ratio)” value read?
**A.** -5.02

**Q.** Which “polymerase ribozyme fitness (log ratio)” value does the source give for C12A G39U A50U U133A here?
**A.** -1.46

**Q.** For C11U U14G G19U A29G C31U U32C C72G A111U U129A, which “polymerase ribozyme fitness (log ratio)” value is on record?
**A.** -7.29

**Q.** With C12A G19C A91U U126G as the variant, how does the “polymerase ribozyme fitness (log ratio)” value read?
**A.** -5.51

**Q.** Which “polymerase ribozyme fitness (log ratio)” value does the source give for C12U G19C C56U U81G C104A G117C here?
**A.** -5.9

**Q.** For C12A C56A C70U C102A C104U, which “polymerase ribozyme fitness (log ratio)” value is on record?
**A.** -2.58

**Q.** Which “polymerase ribozyme fitness (log ratio)” value does the source give for C12G C115G here?
**A.** -2.46

**Q.** With C11U G117C A119U as the variant, how does the “polymerase ribozyme fitness (log ratio)” value read?
**A.** -3.48

**Q.** Which “polymerase ribozyme fitness (log ratio)” value does the source give for C12A C28U here?
**A.** -1.82

**Q.** For C12U C99A, which “polymerase ribozyme fitness (log ratio)” value is on record?
**A.** -3.9

**Q.** For C11U G128C, which “polymerase ribozyme fitness (log ratio)” value is on record?
**A.** -2.9

**Q.** For C12U C70U U129C, which “polymerase ribozyme fitness (log ratio)” value is on record?
**A.** -0.46

**Q.** Which “polymerase ribozyme fitness (log ratio)” value does the source give for C12G A29U C49G C82U C115U U133A here?
**A.** -2.06

**Q.** Which “polymerase ribozyme fitness (log ratio)” value does the source give for C12A C115A here?
**A.** -0.819

**Q.** Which “polymerase ribozyme fitness (log ratio)” value does the source give for C12A G19C G58A C82G here?
**A.** -3.7

**Q.** With C12A G51A A91G A119G G120A as the variant, how does the “polymerase ribozyme fitness (log ratio)” value read?
**A.** -2.39

**Q.** With C12G G48C C49A U55C G61A A95G G110A as the variant, how does the “polymerase ribozyme fitness (log ratio)” value read?
**A.** -2.17

**Q.** For C12A U126C, which “polymerase ribozyme fitness (log ratio)” value is on record?
**A.** -2.01

**Q.** With C12U C22U C28U C124A as the variant, how does the “polymerase ribozyme fitness (log ratio)” value read?
**A.** -4.02

**Q.** Which “polymerase ribozyme fitness (log ratio)” value does the source give for C12G C123G here?
**A.** 1.55

**Q.** With C12G A83G C88G U125G as the variant, how does the “polymerase ribozyme fitness (log ratio)” value read?
**A.** -2.21

**Q.** For C12A G60A G110U G122A U132A, which “polymerase ribozyme fitness (log ratio)” value is on record?
**A.** -3.16

**Q.** Which “polymerase ribozyme fitness (log ratio)” value does the source give for C12U C56U here?
**A.** 0.248

**Q.** With C12U G42U C70U U81C G120U as the variant, how does the “polymerase ribozyme fitness (log ratio)” value read?
**A.** -1.9

**Q.** With C12U A27G C88A C123G U126A as the variant, how does the “polymerase ribozyme fitness (log ratio)” value read?
**A.** -1.75

**Q.** With C12A G19A A46C C73U G117C as the variant, how does the “polymerase ribozyme fitness (log ratio)” value read?
**A.** -5.99

**Q.** Which “polymerase ribozyme fitness (log ratio)” value does the source give for C12A C13U G61U U106A here?
**A.** -0.644

**Q.** For C12G U87A, which “polymerase ribozyme fitness (log ratio)” value is on record?
**A.** -0.0361

**Q.** For C11U U21C G120U, which “polymerase ribozyme fitness (log ratio)” value is on record?
**A.** 0.267

**Q.** With C12G C89A as the variant, how does the “polymerase ribozyme fitness (log ratio)” value read?
**A.** -1.41

**Q.** For C12U G44U G110A, which “polymerase ribozyme fitness (log ratio)” value is on record?
**A.** -2.1

**Q.** For C12G C15G G45A C49G C85U C124U, which “polymerase ribozyme fitness (log ratio)” value is on record?
**A.** -2.82

**Q.** With C12A C49A C70A C97A G120U U130G as the variant, how does the “polymerase ribozyme fitness (log ratio)” value read?
**A.** -5.85

**Q.** With C12G C31U C49U G51U C70U C101A U109G as the variant, how does the “polymerase ribozyme fitness (log ratio)” value read?
**A.** -6.92

**Q.** For C12G G69U U81G A90U G127U, which “polymerase ribozyme fitness (log ratio)” value is on record?
**A.** -4.07

**Q.** Which “polymerase ribozyme fitness (log ratio)” value does the source give for C12G G58U A90U A105U here?
**A.** -4.19

**Q.** Which “polymerase ribozyme fitness (log ratio)” value does the source give for C12A A83U here?
**A.** -0.825

**Q.** With C12G G47C U96A C104A as the variant, how does the “polymerase ribozyme fitness (log ratio)” value read?
**A.** -4.59

**Q.** With C12A G48U G71A as the variant, how does the “polymerase ribozyme fitness (log ratio)” value read?
**A.** -2.04

**Q.** With C12U C49G G113U C114A U129A as the variant, how does the “polymerase ribozyme fitness (log ratio)” value read?
**A.** -4.7

**Q.** With C12G G44A G48U A103G U112A C115A as the variant, how does the “polymerase ribozyme fitness (log ratio)” value read?
**A.** -6.92

**Q.** For C12U A18U G47C U130A, which “polymerase ribozyme fitness (log ratio)” value is on record?
**A.** -4.44

**Q.** With C12A C97A U131A as the variant, how does the “polymerase ribozyme fitness (log ratio)” value read?
**A.** -4.52

**Q.** With C12A A26G G57A U78A C124G as the variant, how does the “polymerase ribozyme fitness (log ratio)” value read?
**A.** -1.04

**Q.** For C12G C34A C56U, which “polymerase ribozyme fitness (log ratio)” value is on record?
**A.** -2.05

**Q.** With C12U G47C G69U G107A as the variant, how does the “polymerase ribozyme fitness (log ratio)” value read?
**A.** -4.81

**Q.** Which “polymerase ribozyme fitness (log ratio)” value does the source give for C12G U112A U133G here?
**A.** 1.61

**Q.** Which “polymerase ribozyme fitness (log ratio)” value does the source give for C12G C13A C56U C124A U132C here?
**A.** 0.686

**Q.** Which “polymerase ribozyme fitness (log ratio)” value does the source give for C12A G61A G93A here?
**A.** -0.608

**Q.** For C12G C40A, which “polymerase ribozyme fitness (log ratio)” value is on record?
**A.** -1.14

**Q.** With C12A C89U as the variant, how does the “polymerase ribozyme fitness (log ratio)” value read?
**A.** -1.16

**Q.** For C12A G57U C82G G113A G122A, which “polymerase ribozyme fitness (log ratio)” value is on record?
**A.** -2.01

**Q.** For C11U U78C, which “polymerase ribozyme fitness (log ratio)” value is on record?
**A.** -0.264

**Q.** With C12A G63A C89G C114A as the variant, how does the “polymerase ribozyme fitness (log ratio)” value read?
**A.** -6.47

**Q.** For C12A G57U G61U C89G, which “polymerase ribozyme fitness (log ratio)” value is on record?
**A.** -5.96

**Q.** With C12G G35A G48U G57U C80U as the variant, how does the “polymerase ribozyme fitness (log ratio)” value read?
**A.** -4.47

**Q.** Which “polymerase ribozyme fitness (log ratio)” value does the source give for C12G G47A G48C A68G A103G A105C U106A G117U G120C here?
**A.** -7.36

**Q.** Which “polymerase ribozyme fitness (log ratio)” value does the source give for C12U G45A U96C G110U G135A here?
**A.** -2.06

**Q.** With C12A A18C as the variant, how does the “polymerase ribozyme fitness (log ratio)” value read?
**A.** -1.6

**Q.** Which “polymerase ribozyme fitness (log ratio)” value does the source give for C12U G47A U55A G61U C86U here?
**A.** -0.0107

**Q.** For C11U U112G G127A, which “polymerase ribozyme fitness (log ratio)” value is on record?
**A.** -1.34

**Q.** With C12U A27G C40U C56U C79A U81A C124U as the variant, how does the “polymerase ribozyme fitness (log ratio)” value read?
**A.** -2.87

**Q.** Which “polymerase ribozyme fitness (log ratio)” value does the source give for C12G A24U C76A C82A G120C here?
**A.** -6.17

**Q.** For C12U G47A C79U U87C, which “polymerase ribozyme fitness (log ratio)” value is on record?
**A.** 0.112

**Q.** With C12A C49U as the variant, how does the “polymerase ribozyme fitness (log ratio)” value read?
**A.** -1.61

**Q.** Which “polymerase ribozyme fitness (log ratio)” value does the source give for C12A G47C C56A C70U A83U C85U G120C here?
**A.** -4.03

**Q.** Which “polymerase ribozyme fitness (log ratio)” value does the source give for C12U G39C G52C C53A C79A A119U here?
**A.** -1.3
